In US20110059095A1 (Regeneron, published 2011):
Where a chain is given by its changes, count along the chain named.

How the values were obtained:
[1] = molecular target: T1, Peptide E (mouse PAR-2), unbiotinylated (Mouse (Mus musculus)); assay: peptide ELISA titration; ELISA titration, antibody 13.3 nM to 0.22 pM, sigmoidal fit
T1 construct: also called Peptide E No Biotin
T1 peptide: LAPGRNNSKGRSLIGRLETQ
Method: Anti-PAR-2 antibodies were tested for their ability to bind to the PAR-2 peptides. Various PAR-2 Peptides (Table 3) were coated onto 96-well plates at a concentration of 2 μg/ml and incubated overnight followed by blocking in a suitable blocking agent for one hour. […] Purified anti-PAR-2 antibodies were added to the plate coated with PAR-2 peptides to a final concentration ranging from 0.2 to 2.0 μg/ml and incubated for one hour at room temperature. Detection of bound antibodies was determined with Horse-Radish Peroxidase (HRP) conjugated anti-mouse or human IgG (Jackson Immuno Research Lab, West Grove, Pa.) and developed by standard colorimetric response using tetramethylbenzidine (TMB) substrate. Absorbance was read at OD₄₅₀ for 0.1 second.
In another experiment, selected anti-PAR-2 antibodies cloned onto human IgG4 were tested for binding to unbiotinylated and biotinylated forms of PAR-2 peptides (Peptides A, E, F and G; as described above). […] Absorbance values at 450 nm were analyzed using a sigmoidal dose-response model in GraphPad Prism (GraphPad Software, Inc., La Jolla, Calif.) and EC₅₀ values were reported (Table 9). EC₅₀ values are defined as the antibody concentration required to achieve 50% maximal binding to PAR-2 peptide.

full length human PAR-2 = full length human PAR-2 (human, UniProt P55085 26-397); assay: cell-based or functional assay
Chain of full length human PAR-2 (P55085 26-397 G138A limits assumed): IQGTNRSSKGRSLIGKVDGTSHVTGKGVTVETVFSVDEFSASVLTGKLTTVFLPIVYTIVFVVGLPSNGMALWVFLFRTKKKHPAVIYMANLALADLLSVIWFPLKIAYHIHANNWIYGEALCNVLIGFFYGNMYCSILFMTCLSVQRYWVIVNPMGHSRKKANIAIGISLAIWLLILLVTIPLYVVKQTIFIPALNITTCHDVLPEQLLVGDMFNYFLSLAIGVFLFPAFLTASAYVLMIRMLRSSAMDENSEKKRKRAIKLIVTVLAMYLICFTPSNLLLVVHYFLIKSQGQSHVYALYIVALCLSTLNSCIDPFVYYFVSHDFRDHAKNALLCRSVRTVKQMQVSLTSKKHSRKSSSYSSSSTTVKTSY

monkey PAR-2 = monkey PAR-2 (monkey); assay: cell-based or functional assay
rat PAR-2 = rat PAR-2 (rat, UniProt Q63645 37-397); assay: cell-based or functional assay
Chain of rat PAR-2 (Q63645 37-397): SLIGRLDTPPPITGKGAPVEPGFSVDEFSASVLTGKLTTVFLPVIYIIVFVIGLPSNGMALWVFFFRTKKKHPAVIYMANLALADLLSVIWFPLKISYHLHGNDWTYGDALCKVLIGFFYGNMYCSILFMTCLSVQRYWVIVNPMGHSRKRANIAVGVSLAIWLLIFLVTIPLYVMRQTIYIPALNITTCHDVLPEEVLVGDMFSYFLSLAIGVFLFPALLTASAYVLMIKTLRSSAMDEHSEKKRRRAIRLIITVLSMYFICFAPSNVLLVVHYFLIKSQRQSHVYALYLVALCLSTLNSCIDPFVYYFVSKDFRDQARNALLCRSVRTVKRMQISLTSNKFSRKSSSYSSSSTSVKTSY

[2] = molecular target: T2, Peptide B (human PAR-2), unbiotinylated (Human); assay: SPR, antibody captured
T2 construct: also called Peptide B No Biotin
T2 peptide: SLIGKVDGTSHVTG

[3] = molecular target: T3, Peptide F (monkey PAR-2), N-terminal biotinylated (Monkey (Macaca mulatta), N-terminal biotin via G4S linker); assay: SPR, antibody captured
T3 construct: also called Peptide F N-Term
T3 sequence (peptide, as listed by the source): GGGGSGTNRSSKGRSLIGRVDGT

[4] = molecular target: T2, Peptide B (human PAR-2), unbiotinylated; assay: SPR, antibody captured
Method: Equilibrium dissociation constants (KD values) for antigen binding to selected purified PAR-2 antibodies were determined by surface kinetics using a real-time surface plasmon resonance biosensor assay. Antibody was captured on either a rabbit anti-mouse IgG polyclonal antibody (GE Healthcare, Piscataway, N.J.) surface or a goat anti-human IgG polyclonal antibody (Jackson Immuno Research Lab, West Grove, Pa.) surface created through direct amine chemical coupling to a BIACORE™ CM5 sensor chip to form a captured antibody surface. […] Antigen-antibody binding and dissociation were monitored in real time at room temperature. Kinetic analysis was performed to calculate KD and half-life of antigen/antibody complex dissociation (Table 10). For those antibodies where no T_{1/2} value is shown, steady state analysis was used to calculate the KD value. NB: no binding observed under current experimental conditions. ND: not determined.

B1: H4H579P (antibody, human IgG4, V domains shown)
VH: QVQLVESGGGVVQPGRSLRLSCVASGFTFSRYGMHWVRQAPGKGLEWLIVISYDGINKYYADSVKGRFTISRDNSKNTVYLQMNSLRAEDTGVYYCAKGDFWSGYFDYWGQGTLVTVSS
VL: DIVMTQTPLSSPVTLGQPASISCRSSQSLVHSDGNTYLSWLHQRPGQPPRLLIYKISNRFSGVPDRFSGSGAGTDFTLQISRVEAEDVGIYYCMQGTQFPTFGGGTKVEIK
notes: also called H1H579P variable regions
[1]
  EC50: 0.713 nM

B2: H4H581P (antibody, human IgG4, V domains shown)
VH: B1 VH with M34I, L48V, G92A
VL: B1 VL with G96A
notes: also called mAb H4H581P; H1H581P variable regions
Full length human PAR-2
  H4H581P IC50, NF-kB-luciferase, Bovine Factor Xa: 2.5 nM
  H4H581P IC50, NF-kB-luciferase, Human Factor Xa: 1.1 nM
  H4H581P IC50, NF-kB-luciferase, Human Kallikrein 5: 0.9 nM
  H4H581P IC50, NF-kB-luciferase, Human Kallikrein 14: 1.2 nM
  H4H581P IC50, NF-kB-luciferase, Human Pancreatic Trypsin: 1.9 nM
  H4H581P IC50, NF-kB-luciferase, Tryptase: 3.5 nM
Monkey PAR-2
  H4H581P IC50, NF-kB-luciferase, Bovine Factor Xa: 0.9 nM
  H4H581P IC50, NF-kB-luciferase, Human Kallikrein 5: 11 nM
  H4H581P IC50, NF-kB-luciferase, Human Kallikrein 14: 11.6 nM
  H4H581P IC50, NF-kB-luciferase, Human Pancreatic Trypsin: 5.4 nM
Rat PAR-2
  H4H581P IC50, NF-kB-luciferase, Human Pancreatic Trypsin: 700 nM

B3: H4H585P (antibody, human IgG4, V domains shown)
VH: B1 VH with G92A
VL: B1 VL
notes: also called H1H585P variable regions
[1]
  EC50: 0.308 nM

B4: H4H583P (antibody, human IgG4, V domains shown)
VH: QVQLVESGGGVVQPGMSLRLSCTASGFTFRRYGMHWVRQAPGKGLEWVAVIWYDGSNKYYADSVKGRFTITRDNSKNTLYLQMNSLRAEDTAIYFCASEITIGDWFDPRGQGTLVTVSS
VL: AIQMTQSPSSLSASVGDRVTITCRASQGIRNDLGWFQQKPGKVPKLLIYAASTLHSGVPSRFSGSGFGTDFTLTISSLQPEDFATYYCLQDFNYPLTFGGGTKVEIK
notes: also called H1H583P variable regions
[2]
  binding result: no binding (tested: 15.6 to 250 nM peptide)

B5: H4H588N (antibody, human IgG4, V domains shown)
VH: EVQLLESGGGLVQPGGSLRLSCAASGFTFSSYAMTWVRQAPGKGLYWVSAISGGRGSAYYADSVKGRFTISRDNSKNTLYLQMNSLRAEDTAVYYCAKEGDSGYDLAYWGRGTLVTVSS
VL: DIQMTQSPSSLSASVGDRVTITCRARQGISNNLAWLQQKPGKAPKSLIYAASSLQSGIPSKFSGSGSGTYFTLTISSLQPEDFATYYCQQYKSSPLTFGGGTKVEIK
notes: also called H2M588N variable regions
[3]
  Kd: 7.1 nM
  T1/2: 24 min
[4]
  Kd: 84 nM
  T1/2: 9 min
